Assay results reported in the supplement of paper PMC9732359.
± gives the uncertainty stated by the source.

Test: protein stability index of a GFP-peptide fusion (yeast GPS) (PSI 1-4); higher = more stable; sorted into four equal gates, so the index is relative within each strain
Summary of the method: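 The protein stability index combines read frequencies across sorting gates, each weighted by its gate number and then summed. To obtain those frequencies, a pooled yeast library of GFP fusions to tiled 17-residue yeast protein peptides, on a plasmid also expressing Cherry, was grown to mid-log phase in leucine-free medium. The cells were sorted into four equal gates by GFP/Cherry ratio before plasmid amplification by PCR and Illumina sequencing.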

| Sequence | protein stability index (doa10∆) | protein stability index (pdr5∆) | protein stability index (san1∆) | protein stability index (ubr1∆) |
| --- | --- | --- | --- | --- |
| LNEAPFPEENIIDAKTR [MCD1] | 3.12 ± 0.078 | 3.17 ± 0.052 | 3.136 ± 0.031 | 3.27 ± 0.051 |
| SLKNTDALLNSTTEHIN [YJL039C/NUP192] | 1.9 ± 0.15 | 2.49 ± 0.094 | 2.13 ± 0.12 | 2.42 ± 0.16 |
| LIELSGGQRSLIALSLI [SMC2] | 2.42 ± 0.078 | 2.29 ± 0.09 | 1.86 ± 0.1 | 2.27 ± 0.035 |
| KHSVTEYIFEAHEIIKR [CDC53] | 2.32 ± 0.067 | 1.87 ± 0.049 | 2.68 ± 0.075 | 2.58 ± 0.051 |
| QREAAAEYAQLLAKRLS [RPS6A] | 1.78 ± 0.059 | 1.6 ± 0.055 | 1.7 ± 0.11 | 2.11 ± 0.046 |
| GEEDAVDLLLEIESIDK [RPN1] | 3.25 ± 0.11 | 3.08 ± 0.14 | 3.25 ± 0.08 | 3.33 ± 0.057 |
| NSSKPAFSFGAKSNEDK [YJL041W/NSP1] | 3.19 ± 0.1 | 3.13 ± 0.056 | 3.32 ± 0.077 | 3.33 ± 0.068 |
| PNSERETDHANTENNDP [IRR1] | 2.69 ± 0.073 | 2.87 ± 0.052 | 2.73 ± 0.045 | 2.88 ± 0.044 |
| LHKLELKAKNQEEEGEL [DSN1] | 3.14 ± 0.17 | 3.29 ± 0.17 | 3.37 ± 0.14 | 3.25 ± 0.1 |
| TGSDREVQRILIELLTQ [RPT3] | 3.02 ± 0.14 |  |  | 3.5 ± 0.23 |
| YVIKALQSLTSKGYVKT [RPS10A] | 2.88 ± 0.12 | 1.74 ± 0.072 | 1.39 ± 0.17 | 2.6 ± 0.089 |
| HLELYTSQYGTPSTETA [PRE3] | 1.39 ± 0.043 | 1.9 ± 0.04 | 1.44 ± 0.084 | 1.64 ± 0.037 |
| KGNVGFVFTNEPLTEIK [RPP0] | 3.56 ± 0.18 | 3.06 ± 0.1 | 2.06 ± 0.21 | 3.58 ± 0.2 |
| EYINNCKKNTKKCLKLA [POP4] | 2.82 ± 0.13 | 3.1 ± 0.13 | 2.99 ± 0.077 | 2.78 ± 0.14 |
| DSVENSSNILEDILYYS [SRB8] | 2.92 ± 0.13 | 2.74 ± 0.073 | 2.5 ± 0.058 | 2.72 ± 0.059 |
| SKKLNLKIHQSHLVVPY [YMR129W/POM152] | 2.32 ± 0.15 | 1.95 ± 0.086 |  | 2.88 ± 0.14 |
| KPGQNNRQQKKRRFDPS [RRP6] | 2.78 ± 0.089 | 2.99 ± 0.11 | 3.21 ± 0.13 | 2.56 ± 0.08 |
| AFGVSVAFLDNDLGKFI [RPN7] | 3.17 ± 0.086 | 3.16 ± 0.1 | 3.07 ± 0.081 | 3.28 ± 0.057 |
| IRVAETRGGASALIENN [YJL039C/NUP192] | 2.39 ± 0.071 | 2.46 ± 0.089 | 3.1 ± 0.072 | 2.89 ± 0.055 |
| QEHTIFTQLKKNIPKTR [SNU114] | 1.8 ± 0.045 | 2.16 ± 0.05 | 2.64 ± 0.049 | 1.62 ± 0.037 |
| TKESQPTIEEDLTRVYK [FAS2] | 3.46 ± 0.12 | 3.32 ± 0.094 | 3.2 ± 0.07 | 3.48 ± 0.091 |
| KRKWSYVLYAKIVVLSR [RRP43] | 1.82 ± 0.06 | 2.36 ± 0.064 | 1.87 ± 0.11 | 2.21 ± 0.056 |
| EARFDVLITSYEMVIRE [ISW2] | 1.87 ± 0.094 | 1.49 ± 0.089 | 1.88 ± 0.11 | 2.02 ± 0.11 |
| KDIAKRQFKEILTVKEE [RRP40] | 2.2 ± 0.045 | 2.4 ± 0.048 | 2.46 ± 0.057 | 2.52 ± 0.042 |
| LDALVDCENFFNYVQEC [YJL039C/NUP192] | 3.37 ± 0.12 | 3.43 ± 0.084 | 3.44 ± 0.079 | 3.41 ± 0.065 |
| NVSDEQLSNWQKIRNSE [ITC1] | 3.15 ± 0.071 | 3.2 ± 0.095 | 2.94 ± 0.1 | 2.98 ± 0.087 |
